Experimental data: patent US20200339648A1 (University of Washington, published 2020)
One block for each binder: values may come before it.

Tests used:
[1] = molecular target: T1, mouse IL-2 receptor βγc heterodimer (mIL-2Rβγc), soluble (mouse, UniProt P16297 27-240; P34902 23-263, biotin on the C-terminal biotin acceptor peptide); assay: biolayer interferometry; biotin-mIL2Gamma on streptavidin biosensor, MSA-Neo2 titrated from 729 to 1 nM with saturating mIL2Beta
T1 construct: extracellular domain; In SPR and BLI the gamma chain is on the chip or sensor and mIL-2Rβ is added in solution at saturating concentration (5 uM in SPR); also called MmIL-2Rβγc; mIL-2Rβνc
T1 sequence 1: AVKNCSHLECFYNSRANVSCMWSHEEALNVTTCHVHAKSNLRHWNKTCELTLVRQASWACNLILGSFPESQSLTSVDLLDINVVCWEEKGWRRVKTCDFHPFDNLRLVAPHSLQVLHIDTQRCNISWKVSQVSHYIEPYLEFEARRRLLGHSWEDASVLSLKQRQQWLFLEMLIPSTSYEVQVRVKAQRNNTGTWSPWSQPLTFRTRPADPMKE
T1 sequence 2: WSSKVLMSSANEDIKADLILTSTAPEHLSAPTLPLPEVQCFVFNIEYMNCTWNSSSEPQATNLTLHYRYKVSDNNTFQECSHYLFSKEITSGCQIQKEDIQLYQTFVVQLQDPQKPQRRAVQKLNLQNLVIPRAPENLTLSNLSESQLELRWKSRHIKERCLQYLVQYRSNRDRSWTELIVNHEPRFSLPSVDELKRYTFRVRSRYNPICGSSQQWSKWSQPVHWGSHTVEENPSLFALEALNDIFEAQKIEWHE

[2] = molecular target: T2, mouse IL-2 receptor β subunit (mIL-2Rβ) (mouse, UniProt P16297 27-240, biotin on the C-terminal biotin acceptor peptide); assay: SPR, equilibrium titration; biotinylated IL-2Rβ on streptavidin chip
T2 construct: extracellular domain; Biotinylated form for SPR; also called MmIL-2Rβ; murine IL-2Rβ
T2 sequence: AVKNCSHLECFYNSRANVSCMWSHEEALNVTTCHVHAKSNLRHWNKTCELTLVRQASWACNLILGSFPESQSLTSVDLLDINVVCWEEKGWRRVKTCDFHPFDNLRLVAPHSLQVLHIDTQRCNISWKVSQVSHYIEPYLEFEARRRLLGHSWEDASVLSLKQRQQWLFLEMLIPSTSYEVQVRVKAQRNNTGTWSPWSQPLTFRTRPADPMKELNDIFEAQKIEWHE
Protocol: (§1) Less than 100 response units (RU) of each ligand was immobilized to minimize mass transfer effects. […] Surface regeneration for all interactions was conducted using 15 s exposure to 1 M MgCl2 in 10 mM sodium acetate pH 5.5. SPR experiments were carried out in HBS-P+ buffer (GE Healthcare) supplemented with 0.2% bovine serum albumin (BSA) at 25° C. and all binding studies were performed at a flow rate of […] to prevent analyte rebinding. Data was visualized and processed using the Biacore T100 evaluation software version 2.0 (GE Healthcare). Equilibrium titration curve fitting and equilibrium binding dissociation (KD) value determination was implemented using GraphPad Prism assuming all binding interactions to be first order. Biolayer interferometry: binding data were collected in a Octet RED96 (ForteBio, Menlo Park, Calif.) and processed using the instrument's integrated software using a 1:1 binding model. […] Analyte proteins were diluted from concentrated stocks into binding buffer. After baseline measurement in binding buffer alone, the binding kinetics were monitored by dipping the biosensors in wells containing 100 nM of the designed protein (association) and then dipping the sensors back into baseline wells (dissociation).

[3] = molecular target: T3, mouse IL-2Rβγc on murine cells (CTLL-2 T cells, primary CD4+ T cells) (mouse, UniProt P16297 27-539; P34902 23-369); assay: cell-based or functional assay
T3 sequence (looked up) 1: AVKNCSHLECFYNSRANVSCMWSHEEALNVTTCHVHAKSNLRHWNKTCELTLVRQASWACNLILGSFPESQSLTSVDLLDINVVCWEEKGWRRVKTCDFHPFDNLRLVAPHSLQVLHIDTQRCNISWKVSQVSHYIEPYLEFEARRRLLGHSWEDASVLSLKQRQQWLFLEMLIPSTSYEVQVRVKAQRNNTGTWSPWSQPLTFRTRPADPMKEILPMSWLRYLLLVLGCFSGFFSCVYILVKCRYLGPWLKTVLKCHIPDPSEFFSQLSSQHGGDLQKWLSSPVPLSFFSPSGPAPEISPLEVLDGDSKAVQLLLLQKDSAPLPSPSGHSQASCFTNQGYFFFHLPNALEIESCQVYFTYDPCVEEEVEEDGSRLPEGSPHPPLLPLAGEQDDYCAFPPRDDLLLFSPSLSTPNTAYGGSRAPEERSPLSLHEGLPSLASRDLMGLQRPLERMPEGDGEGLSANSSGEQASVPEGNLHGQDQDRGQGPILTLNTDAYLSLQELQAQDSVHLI
T3 sequence (looked up) 2: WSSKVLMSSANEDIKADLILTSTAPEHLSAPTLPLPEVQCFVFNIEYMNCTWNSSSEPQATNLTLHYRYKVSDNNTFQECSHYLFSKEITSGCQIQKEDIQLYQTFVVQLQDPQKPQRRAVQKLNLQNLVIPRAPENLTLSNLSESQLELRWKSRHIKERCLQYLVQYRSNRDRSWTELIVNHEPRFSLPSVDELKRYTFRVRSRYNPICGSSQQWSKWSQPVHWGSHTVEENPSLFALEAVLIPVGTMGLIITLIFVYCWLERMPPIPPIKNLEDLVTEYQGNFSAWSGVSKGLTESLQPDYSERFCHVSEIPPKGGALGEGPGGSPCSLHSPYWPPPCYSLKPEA

[4] = molecular target: T4, human IL-2 receptor α subunit (hIL-2Rα) (human, UniProt P01589 22-238, biotin on the C-terminal biotin acceptor peptide); assay: SPR, biotinylated receptor on streptavidin chip
T4 construct: range 1-217; Biotinylated and immobilised on streptavidin; also called human IL-2Rα; CD25
T4 sequence: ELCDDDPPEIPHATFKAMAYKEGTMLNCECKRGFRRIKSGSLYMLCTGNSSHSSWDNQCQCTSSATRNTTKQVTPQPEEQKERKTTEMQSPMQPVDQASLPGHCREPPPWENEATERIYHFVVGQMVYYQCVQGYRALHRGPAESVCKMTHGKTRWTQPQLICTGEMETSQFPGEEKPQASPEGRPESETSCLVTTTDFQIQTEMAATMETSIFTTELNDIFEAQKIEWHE
Protocol: as §1

[5] = molecular target: T5, mouse IL-2 receptor α subunit (mIL-2Rα) (mouse, UniProt P01590 22-236, biotin on the C-terminal biotin acceptor peptide); assay: SPR, biotinylated receptor on streptavidin chip
T5 construct: extracellular domain; Biotinylated and immobilised on streptavidin; also called murine IL-2Rα
T5 sequence: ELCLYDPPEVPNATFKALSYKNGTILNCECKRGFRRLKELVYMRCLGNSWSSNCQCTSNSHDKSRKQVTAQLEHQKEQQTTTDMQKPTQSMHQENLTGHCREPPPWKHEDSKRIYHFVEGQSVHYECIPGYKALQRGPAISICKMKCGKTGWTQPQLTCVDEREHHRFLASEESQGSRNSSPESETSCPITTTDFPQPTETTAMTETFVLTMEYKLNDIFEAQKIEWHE
Protocol: as §1

[6] = molecular target: T1, mouse IL-2 receptor βγc heterodimer …; assay: SPR, equilibrium titration; IL-2Rγ on streptavidin chip, saturating IL-2Rβ in solution
Protocol: as §1

[7] = molecular target: T3, mouse IL-2Rβγc on murine cells (CTLL-2 …); assay: cell-based or functional assay; remark: listed apart in the source

Kd [1]: 0.0335 µM
B1: Mouse Serum Albumin (MSA) fusion to Neoleukin-2/15 (other)
chain: GSDGGSHHHHHHGSGSENLYFQGSGEAHKSEIAHRYNDLGEQHFKGLVLIAFSQYLQKCSYDEHAKLVQEVTDFAKTCVADESAANCDKSLHTLFGDKLCAIPNLRENYGELADCCTKQEPERNECFLQHKDDNPSLPPFERPEAEAMCTSFKENPTTFMGHYLHEVARRHPYFYAPELLYYAEQYNEILTQCCAEADKESCLTPKLDGVKEKALVSSVRQRMKCSSMQKFGERAFKAWAVARLSQTFPNADFAEITKLATDLTKVNKECCHGDLLECADDRAELAKYMCENQATISSKLQTCCDKPLLKKAHCLSEVEHDTMPADLPAIAADFVEDQEVCKNYAEAKDVFLGTFLYEYSRRHPDYSVSLLLRLAKKYEATLEKCCAEANPPACYGTVLAEFQPLVEEPKNLVKTNCDLYEKLGEYGFQNAILVRYTQKAPQVSTPTLVEAARNLGRVGTKCCTLPEDQRLPCVEDYLSAILNRVCLLHEKTPVSEHVTKCCSGSLVERRPCFSALTVDETYVPKEFKAETFTFHSDICTLPEKEKQIKKQTALAELVKHKPKATAEQLKTVMDDFAQFLDTCCKAADKDTCFSTEGPNLVTRCKDALAGGGSGGSGGGSGGSGSGPKKKIQLHAEHALYDALMILNIVKTNSPPAEEKLEDYAFNFELILEEIARLFESGDQKDEAEKAKRMKEWMKRIKTTASEDEQEEMANAIITILQSWIFS
notes: also called MSA-Neo2

Kd [2]: 0.0161 µM | EC50 of pSTAT5 signaling, murine CD4+ primary cells ex vivo, CD25+ [3]: ~24 pM | EC50 of pSTAT5 signaling, murine CD4+ primary cells ex vivo, CD25- [3]: ~129 pM | binding result [4]: no binding | binding result [5]: no binding | Kd [6]: 0.0384 µM | EC50 (CD25+) pSTAT5, murine T (CTLL-2, CD25+) cells [7]: 0.07 nM
B2: Neoleukin-2/15 (designed binder)
chain: PKKKIQLHAEHALYDALMILNIVKTNSPPAEEKLEDYAFNFELILEEIARLFESGDQKDEAEKAKRMKEWMKRIKTTASEDEQEEMANAIITILQSWIFS
notes: 100 residues; also called Neo-2/15; Neolukin-2/15
